The source of these data is article PMC8594432, “One-step, kit-based radiopharmaceuticals for molecular SPECT imaging: a versatile diphosphine chelator for ^99mTc radiolabelling of peptides” (Dalton Transactions (Cambridge, England : 2003), 2021).

The data set is classed as physicochemical. The source says: Reaction of RGD with BMA[21,22] in a basic solution of DMF followed by semi-preparative reverse-phase C18 HPLC provided the diphosphine conjugate DP-RGD (Scheme 1) in ≥95% purity and 86% yield. DP-RGD was characterised by ^1H, ^13C and ^31P NMR, analytical HPLC and HR-ESI-MS (Fig. S1–S6 and Tables S1, S2 ^†).

As to `N=C(N)NCCC[C@@H]1NC(=O)[C@H](CCCCNC(=O)/C(=C(\C(=O)O)P(c2ccccc2)c2ccccc2)P(c2ccccc2)c2ccccc2)NC(=O)[C@@H](Cc2ccccc2)NC(=O)[C@H](CC(=O)O)NC(=O)CNC1=O` [DP-RGD], the “stability in acidic solutions (in words)” value is “decomposed to re-form RGD and BMA”; the “stability to oxidation in solution (in words)” value was “slowly oxidised in solution to phosphine oxide derivatives”; the “stability to oxidation in the solid state (in words)” value is reported as “stable to oxidation”.
